Source: patent US20210047428A1
pKd: −log10 of the molar value.

What was measured:
[1] = molecular target: HEL^3X (hen egg lysozyme R21Q, R73E, D101R), soluble recombinant (hen) (UniProt P00698); experiment: BLI, highest concentration of HEL^3X tested
[2] = molecular target: HEL^3X (hen egg lysozyme R21Q, R73E, D101R), soluble recombinant (hen) (UniProt P00698); experiment: BLI; against WT HyHEL10 on HEL^3X
[3] = molecular target: duck egg lysozyme (DEL), soluble recombinant (duck) (UniProt P00705); experiment: BLI; against WT HyHEL10 on DEL
[4] = molecular target: HEL^3X (hen egg lysozyme R21Q, R73E, D101R), soluble recombinant (hen) (UniProt P00698); experiment: BLI
[5] = molecular target: duck egg lysozyme (DEL), soluble recombinant (duck) (UniProt P00705); experiment: BLI
[6] = molecular target: HEL^3X (hen egg lysozyme R21Q, R73E, D101R), soluble recombinant (hen) (UniProt P00698); experiment: BLI, Fab on streptavidin sensor
[7] = molecular target: duck egg lysozyme (DEL), soluble recombinant (duck) (UniProt P00705); experiment: BLI, Fab on streptavidin sensor
[8] = molecular target: duck egg lysozyme (DEL), soluble recombinant (duck) (UniProt P00705); experiment: BLI (BLItz), biotinylated Fab on streptavidin biosensor, soluble monomeric DEL, global fit
[9] = molecular target: duck egg lysozyme (DEL), soluble recombinant (duck) (UniProt P00705); experiment: BLI (BLItz), biotinylated Fab on streptavidin biosensor, soluble monomeric DEL 0.03-0.5 µM, global fit
[10] = molecular target: HEL^3X (hen egg lysozyme R21Q, R73E, D101R), soluble recombinant (hen) (UniProt P00698); experiment: BLI (BLItz), biotinylated Fab on streptavidin biosensor, soluble monomeric HEL3X, global fit
[11] = molecular target: HEL^R21Q,R73E,C76S,C94S (HEL^2X-flex) (hen) (UniProt P00698); experiment: BLI (Example 10)
[12] = molecular target: duck egg lysozyme (DEL), soluble recombinant (duck) (UniProt P00705); experiment: BLI (BLItz), biotinylated Fab on streptavidin biosensor, soluble monomeric DEL 0.025-0.25 µM, global fit
[13] = molecular target: HEL^3X (hen egg lysozyme R21Q, R73E, D101R), soluble recombinant (hen) (UniProt P00698); experiment: BLI; against I29F Fab on DEL
[14] = molecular target: HEL R21Q R73K D101R (self with foreign 73) (hen) (UniProt P00698); experiment: BLI; against I29F Fab on DEL
[15] = molecular target: duck egg lysozyme (DEL), soluble recombinant (duck) (UniProt P00705); experiment: BLI; against I29F Fab on DEL
[16] = molecular target: HEL R21Q R73E L75A D101R (self with foreign 75) (hen) (UniProt P00698); experiment: BLI; against I29F Fab on DEL
[17] = molecular target: HEL R21Q R73K L75A D101R (self with foreign 73, 75) (hen) (UniProt P00698); experiment: BLI; against I29F Fab on DEL
[18] = molecular target: HEL R21Q G71R R73K L75A N77G D101R (self with foreign 71, 73, 75, 77) (hen) (UniProt P00698); experiment: BLI; against I29F Fab on DEL
[19] = molecular target: HEL R21Q R73K D101R (self with foreign 73) (hen) (UniProt P00698); experiment: BLI, Fab on streptavidin sensor
[20] = molecular target: HEL R21Q R73E L75A D101R (self with foreign 75) (hen) (UniProt P00698); experiment: BLI, Fab on streptavidin sensor
[21] = molecular target: HEL R21Q R73K L75A D101R (self with foreign 73, 75) (hen) (UniProt P00698); experiment: BLI, Fab on streptavidin sensor
[22] = molecular target: HEL R21Q G71R R73K L75A N77G D101R (self with foreign 71, 73, 75, 77) (hen) (UniProt P00698); experiment: BLI, Fab on streptavidin sensor
[23] = molecular target: duck egg lysozyme (DEL), soluble recombinant (duck) (UniProt P00705); experiment: BLI (BLItz), biotinylated Fab on streptavidin biosensor, soluble monomeric DEL 0.03-0.25 µM, global fit
[24] = molecular target: duck egg lysozyme (DEL), soluble recombinant (duck) (UniProt P00705); experiment: BLI; affinity for DEL against affinity for HEL^3X

Row | Substance | Fold change [2] [fold] | ΔΔG apparent [2] [kcal/mol] | Fold change [3] [fold] | ΔΔG apparent [3] [kcal/mol] | pKd [6] | pKd [7] | Ka [8] [M⁻¹] | pKd [8] | further results
1 | HyHEL10 Fab S52R/Y53F | – | – | – | – | – | – | – | – | fold lower affinity against unmutated HyHEL10 [1]: > 100 fold
2 | HyHEL10 Fab S52T/Y53F/Y58F | 3.5 | -0.7 | 80 | -2.6 | 7.62 | 9.30 | 1.99e+09 | 9.30 | fold increase of affinity against unmutated HyHEL10 [4]: 4 fold; fold lower affinity than the I29F-S52T-Y53F trio [5]: 3 fold
3 | HyHEL10 Fab I29F/S52T | – | – | – | -1.1 | – | 8.22 | 1.7e+08 | 8.24 | –
4 | HyHEL10 Fab I29F/S52T/Y58F | – | – | 23.8 | -1.9 | – | 8.70 | – | – | –
5 | HyHEL10 Fab S52R | – | – | – | – | – | – | – | – | fold lower affinity against unmutated HyHEL10 [1]: > 100 fold
6 | HyHEL10 Fab S52T | – | – | 1.2 | -0.1 | – | 7.48 | 3e+07 | 7.47 | –
7 | HyHEL10 Fab I29F | -10.5 | 1.4 | 2.6 | -0.6 | 6.06 | 7.82 | – | – | Fold change [13]: -56.1 fold; Fold change [14]: -22.3 fold; Fold change [15]: 0 fold; Fold change [16]: -54.5 fold; Fold change [17]: -1.8 fold; Fold change [18]: -2 fold; Ka [10]: 1.1e+06 M⁻¹; pKd [10]: 6.06; pKd [19]: 6.46; pKd [20]: 6.07; pKd [21]: 7.55; pKd [22]: 7.49; Ka [23]: 6.4e+07 M⁻¹; pKd [23]: 7.80
8 | HyHEL10 Fab S52T/Y58F | – | – | – | – | – | 8.52 | 3.8e+08 | 8.59 | –
9 | HyHEL10 Fab S52T/Y53F | -1.8 | 0.3 | 1.1 | -1.4 | 6.82 | 8.44 | 2.8e+08 | 8.44 | –
10 | HyHEL10 Fab Y58F | – | – | – | -0.8 | – | 7.96 | 9.4e+07 | 7.96 | –

The next lines start with results.

Row | Fold change [2] [fold] | ΔΔG apparent [2] [kcal/mol] | Fold change [3] [fold] | ΔΔG apparent [3] [kcal/mol] | pKd [6] | pKd [7] | Ka [8] [M⁻¹] | pKd [8] | Substance | further results
11 | 0 | 0 | 0 | 0 | 7.08 | 7.40 | – | – | HyHEL10 Fab, wild-type | Ka [9]: 2.5e+07 M⁻¹; pKd [9]: 7.40; Ka [10]: 1.2e+07 M⁻¹; pKd [10]: 7.08; Ka [11]: 1.6e+07 M⁻¹
12 | – | – | 4.8 | -0.9 | – | 8.10 | – | – | HyHEL10 Fab Y53F | Ka [12]: 1.2e+08 M⁻¹; pKd [12]: 8.08
13 | – | – | – | -2.2 | – | 9.00 | 9.7e+08 | 9.00 | HyHEL10 Fab I29F/Y53F | –
14 | -9.6 | 1.3 | 245 | -3.3 | 6.09 | 9.79 | 6.1e+09 | 9.80 | HyHEL10 Fab I29F/S52T/Y53F | fold differential binding to foreign (DEL) over self (HEL^3X) [24]: 5000 fold
